Measured values as given in patent US7211424B1, “Mammalian Subtilisin/kexin isozyme SKI-1: a proprotein convertase with a unique cleavage specificity” (Institut de Recherches Cliniques de Montreal, priority 1999, dated 2007).

Key:
[1] = biological target: T1, peptide IV, hSKI-1 (174-188+LE)
T1 chain: WHATGRHSSRRLLRALE

[2] = biological target: T2, peptide III, hSKI-1(174-191)
T2 chain: WHATGRHSSRRLLRAIPR

[3] = biological target: T3, peptide IX, hSKI-1 (128-142)
T3 chain: PQRKVFRSLKYAESD

[4] = biological target: T4, peptide VII, hSKI-1 (187-201)
T4 chain: RAIPRQVAQTLQADV

[5] = biological target: T5, peptide VIII, hSKI-1 (128-136)
T5 chain: PQRKVFRSL

[6] = biological target: T6, peptide I, hproBDNF(50-63)
T6 chain: KAGSRGLTSLADTF

[7] = biological target: soya bean trypsin inhibitor
[8] = biological target: T7, peptide VI, hSKI-1 (156-172)
T7 chain: WQSSRPLRRASLSLGSG

[9] = biological target: T8, peptide V, hSKI-1 (182-188+LE)
T8 chain: SRRLLRALE

[10] = biological target: T9, peptide II, hSREBP-2(504-530)
T9 chain: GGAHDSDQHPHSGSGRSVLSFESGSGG

[11] = biological target: T10, peptide XI, Q-hSKI-1 (134-142): Abz-RSLKYAESD-Y(NO2)-A
T10 chain: XRSLKYAESDXA

[12] = biological target: T11, peptide (iv) hSKI-1 (181-188+Glu)
T11 chain: SSRRLLRAIE

[13] = biological target: T12, peptide X, Q-hSKI-1 (132-142): Abz-VFRSLKYAESD-Y(NO2)-A
T12 chain: XVFRSLKYAESDXA

[14] = biological target: T13, peptide (x) SREBP-2 10 mer
T13 chain: SGSGRSVLSFES

[15] = substrate: CC(C)C[C@H](NC(=O)[C@H](CO)NC(=O)[C@H](CCCNC(=N)N)NC(=O)c1ccccc1N)C(=O)N[C@@H](CCCCN)C(=O)N[C@@H](Cc1ccc(O)cc1)C(=O)N[C@@H](C)C(=O)N[C@@H](CCC(=O)O)C(=O)N[C@@H](CO)C(=O)N[C@@H](CC(=O)O)C(=O)N[C@@H](Cc1ccc(O)c([N+](=O)[O-])c1)C(=O)N[C@@H](C)C(N)=O; assay: Hydrolysis of quenched fluorogenic substrates by shed-hSKI-1; format: biochemical, human; conditions: other: shed-hSKI-1; averages of duplicate assays; pH 6.5; 37.0 °C
Procedure: (§1) For digestions, each peptide was typically reacted at 37° C. with 10 μl of the concentrated enzyme preparation in a buffer consisting of 50 mM HEPES (N-2-Hydroxyethyl piperazine-N′-2 EthaneSulfonic acid) (ICN Biomedicals Inc), 50 mM MES (2-[N-Morpholino] EthaneSulfonic acid) (Sigma Chem Co.), and 3 mM Ca^2+-acetate (pH 6.5). The digestion products were separated by RP-HPLC on a Beckman 5 μm Ultrasphere C18 column (0.2×25 cm) and eluted with a 1%/min linear gradient of aqueous 0.1% TFA/CH3CN ([…]) at a flow rate of 1 ml/min. The collected peptides were characterized by mass spectrometry and amino acid composition, which was also used to quantitate the amount of various substrates and products. The digestions of the quenched fluorogenic peptides were analyzed by RP-HPLC using a dual UV (210 nm) and fluorescence (excitation and emission wavelengths of 320 and 420 nm, respectively) detector (Rainin).
(§2) Km(app), Vmax(app) and Ki(app) determinations—Following digestion reactions with increasing substrate concentrations, the products were separated by RP-HPLC. The rate of substrate hydrolysis was obtained from the integrated peak areas of the chromatograms. Km(app) and Vmax(app) values were estimated using nonlinear regression analysis (Enzfitter software; Elsevier Biosoft, Cambridge, UK) of plots of the hydrolysis rate vs the substrate concentration. […] The Ki(app) values were estimated from Dixon plots as described (16). For the two quenched peptides, kinetic parameters were determined as described (17).

[16] = substrate: CC(C)C[C@H](NC(=O)[C@H](CO)NC(=O)[C@H](CCCNC(=N)N)NC(=O)[C@H](Cc1ccccc1)NC(=O)[C@@H](NC(=O)c1ccccc1N)C(C)C)C(=O)N[C@@H](CCCCN)C(=O)N[C@@H](Cc1ccc(O)cc1)C(=O)N[C@@H](C)C(=O)N[C@@H](CCC(=O)O)C(=O)N[C@@H](CO)C(=O)N[C@@H](CC(=O)O)C(=O)N[C@@H](Cc1ccc(O)c([N+](=O)[O-])c1)C(=O)N[C@@H](C)C(N)=O; assay: as above; format: biochemical, human; conditions: other: shed-hSKI-1; averages of duplicate assays; pH 6.5; 37.0 °C
Procedure: as §1, §2

B1: BTMD-SKI-1 (protein)
chain: RAIPRQVAQTLQADVLWQMGYTGANVRVAVFDTGLSEKHPHFKNVKERTNWTNERTLDDGLGHGTFVAGVIASMRECQGFAPDAELHIFRVFTNNQVSYTSWFLDAFNYAILKKIDVLNLSIGGPDFMDHPFVDKVWELTANNVIMVSAIGNDGPLYGTLNNPADQMDVIGVGGIDFEDNIARFSSRGMTTWELPGGYGRMKPDIVTYGAGVRGSGVKGGCRALSGTSVASPVVAGAVTLLVSTVQKRELVNPASMKQALIASARRLPGVNMFEQGHGKLDLLRAYQILNSYKPQASLSPSYIDLTECPYMWPYCSQPIYYGGMPTVVNVTILNGMGVTGRIVDKPDWQPYLPQNGDNIEVAFSYSSVLWPWSGYLAISISVTKKAASWEGIAQGHVMITVASPAETESKNGAEQTSTVKLPIKVKIIPTPPRSKRVLWDQYHNLRYPPGYFPRDNLRMKNDPLDWNGDHIHTNFRDMYQHLRSMGYFVEVLGAPFTCFDASQYGTLLMVDSEEEYFPEEIAKLRRDVDNGLSLVIFSDWYNTSVMRKVKFYDENTRQWWMPDTGGANIPALNELLSVWNMGFSDGLYEGEFTLANHDMYYASGCSIAKFPEDGVVITQTFKDQGLEVLKQETAVVENVPILGLYQIPAEGGGRIVLYGDSNCLDDSHRQKDCFWLLDALLQYTSYGVTPPSLSHSGNRQRPPSGAGSVTPERMEGNHLHRYSKVLEAHLGDPKPRPLPACPRLSWAKPQPLNETAPSNLWKHQKLLSIDLDKVVLPNFRSNRPQVRPLSPGESGAWDIPGGIMPGRYNQEHHHHHH
Km(app) [1]: 17 µM
Vmax(app) [1]: 0.4 nmol/h
Vmax(app)/Km(app) [1]: 0.023 h^-1L^-1
Vmax(app)/Km(app) relative to peptides I and II [1]: 5-10-fold higher than those obtained with peptides I and II
cleavage of synthetic peptide [1]: this change significantly improved the processing of these peptides
cleavage of synthetic peptide (RP-HPLC, mass spectrometry) [2]: the only one with detectable cleavage by SKI-1-containing concentrated medium ... was peptide III
cleavage of synthetic peptide at K137↓ [3]: the PQRKVFRSLK^137↓YAESD (SEQ. ID. NO. 45) cleavage was only seen in SKI-1-containing medium
cleavage of synthetic peptide [4]: ^1No cleavage detected even with a 10-fold excess of enzyme.
cleavage of synthetic peptide [5]: ^2Cleavage detected but not attributable to SKI-1.
Km(app) [6]: 169 µM
Vmax(app) [6]: 0.4 nmol/h
Vmax(app)/Km(app) [6]: 0.002 h^-1L^-1
cleavage of synthetic peptide (RP-HPLC, MALDI-TOF) [6]: The expected cleavages were confirmed and did not occur using WT-/empty vector-derived media
Hydrolysis of SREBP-2 peptide (% of control) at 0.5 mg/ml SBTI [7]: 100 % of control
Hydrolysis of SREBP-2 peptide (% of control) at 0.01 mM cystatin (cystatin): 100 % of control
cleavage of synthetic peptide [8]: ^1No cleavage detected even with a 10-fold excess of enzyme.
Km(app) [9]: 109 µM
Vmax(app) [9]: 1.1 nmol/h
Vmax(app)/Km(app) [9]: 0.01 h^-1L^-1
catalytic efficiency relative to peptide IV [9]: caused a 4-fold reduction in catalytic efficiency
cleavage of synthetic peptide [9]: this change significantly improved the processing of these peptides
difference in Vmax(app)/Km(app) between peptides IV and V [9]: 2 fold
Km(app) [10]: 124 µM
Vmax(app) [10]: 0.5 nmol/h
Vmax(app)/Km(app) [10]: 0.004 h^-1L^-1
cleavage of synthetic peptide (RP-HPLC, MALDI-TOF) [10]: The expected cleavages were confirmed and did not occur using WT-/empty vector-derived media

B2: shed-hSKI-1 (Homo sapiens) (protein)
chain: RAIPRQVAQTLQADVLWQMGYTGANVRVAVFDTGLSEKHPHFKNVKERTNWTNERTLDDGLGHGTFVAGVIASMRECQGFAPDAELHIFRVFTNNQVSYTSWFLDAFNYAILKKIDVLNLSIGGPDFMDHPFVDKVWELTANNVIMVSAIGNDGPLYGTLNNPADQMDVIGVGGIDFEDNIARFSSRGMTTWELPGGYGRMKPDIVTYGAGVRGSGVKGGCRALSGTSVASPVVAGAVTLLVSTVQKRELVNPASMKQALIASARRLPGVNMFEQGHGKLDLLRAYQILNSYKPQASLSPSYIDLTECPYMWPYCSQPIYYGGMPTVVNVTILNGMGVTGRIVDKPDWQPYLPQNGDNIEVAFSYSSVLWPWSGYLAISISVTKKAASWEGIAQGHVMITVASPAETESKNGAEQTSTVKLPIKVKIIPTPPRSKRVLWDQYHNLRYPPGYFPRDNLRMKNDPLDWNGDHIHTNFRDMYQHLRSMGYFVEVLGAPFTCFDASQYGTLLMVDSEEEYFPEEIAKLRRDVDNGLSLVIFSDWYNTSVMRKVKFYDENTRQWWMPDTGGANIPALNELLSVWNMGFSDGLYEGEFTLANHDMYYASGCSIAKFPEDGVVITQTFKDQGLEVLKQETAVVENVPILGLYQIPAEGGGRIVLYGDSNCLDDSHRQKDCFWLLDALLQYTSYGVTPPSLSHSGNRQRPPSGAGSVTPERMEGNHLHRYSKVLEAHLGDPKPRPLPACPRLSWAKPQPLNETAPSNLWKHQKLLSIDLDKVVLPNFRSNRPQVRPLSPGESGAWDIPGGIMPGRYNQEV
notes: SKI-1 is further processed to remove the transmembrane domain that keeps it integrated in the ER membrane, which generates a SKI-1 soluble form; made in house; host or cells: HK293 cells stably transfected with full-length hSKI-1 in pcDNA3; shed enzyme in the medium
cleavage of quenched fluorogenic peptide (HPLC with UV and fluorescence detection) [11]: clearly revealed a single site of cleavage in peptides (a) and (b)
cleavage of synthetic peptide (iii): efficiently cleaved [1]: only the peptides (iii), (iv), (vii), (viii) (ix) and (x) are efficiently cleaved by the recombinant SKI-1
cleavage of synthetic peptide (ii): not efficiently cleaved [2]: only the peptides (iii), (iv), (vii), (viii) (ix) and (x) are efficiently cleaved by the recombinant SKI-1
cleavage of synthetic peptide (iv): efficiently cleaved [12]: only the peptides (iii), (iv), (vii), (viii) (ix) and (x) are efficiently cleaved by the recombinant SKI-1
cleavage of synthetic peptide (vii): efficiently cleaved [3]: only the peptides (iii), (iv), (vii), (viii) (ix) and (x) are efficiently cleaved by the recombinant SKI-1
kinetic parameters (Vmax/Km) relative to quenched peptide (b) [13]: this peptide is 6-fold more efficient that the nearest candidate quenched peptide (b)
cleavage of synthetic peptide (v): not efficiently cleaved [4]: only the peptides (iii), (iv), (vii), (viii) (ix) and (x) are efficiently cleaved by the recombinant SKI-1
cleavage of synthetic peptide (vi): not efficiently cleaved [5]: only the peptides (iii), (iv), (vii), (viii) (ix) and (x) are efficiently cleaved by the recombinant SKI-1
cleavage of synthetic peptide (viii): efficiently cleaved [6]: only the peptides (iii), (iv), (vii), (viii) (ix) and (x) are efficiently cleaved by the recombinant SKI-1
cleavage of synthetic peptide (i): not efficiently cleaved [8]: only the peptides (iii), (iv), (vii), (viii) (ix) and (x) are efficiently cleaved by the recombinant SKI-1
cleavage of synthetic peptide (ix): efficiently cleaved [10]: only the peptides (iii), (iv), (vii), (viii) (ix) and (x) are efficiently cleaved by the recombinant SKI-1
cleavage of synthetic peptide (x): efficiently cleaved [14]: only the peptides (iii), (iv), (vii), (viii) (ix) and (x) are efficiently cleaved by the recombinant SKI-1
Km [15]: 8.7 µM
Vmax [15]: 0.948 µmol/min
Km [16]: 31.3 µM
Vmax [16]: 0.567 µmol/min
